{"source": "patent US6576610B1", "about": "“Use of a context-dependent functional entity to enhance the efficacy of an agent” (Nuvas, LLC, priority 1999, dated 2003)", "molecules": {"B1": {"name": "TF 1-218 (receptor, human, UniProt P13726 33-250, looked up)", "chain": "SGTTNTVAAYNLTWKSTNFKTILEWEPKPVNQVYTVQISTKSGDWKSKCFYTTDTECDLTDEIVKDVKQTYLARVFSYPAGNVESTGSAGEPLYENSPEFTPYLETNLGQPTIQSFEQVGTKVNVTVEDERTLVRRNNTFLSLRDVFGKDLIYTLYYWKSSSSGKKTAKTNTNEFLIDVDKGENYCFSVQAVIPSRTVNRKSTDSPVECMGQEKGEFR", "notes": "range 1-218; also called isolated truncated TF (tTF) domain alone; tTF"}, "B2": {"name": "NV144 (other, human)", "chain": "PRKLYDGGGGSGGGGSGGGGSTTNTVAAYNLTWKSTNFKTILEWEPKPVNQVYTVQISTKSGDWKSKCFYTTDTECDLTDEIVKDVKQTYLARVFSYPAGNVESTGSAGEPLYENSPEFTPYLETNLGQPTIQSFEQVGTKVNVTVEDERTLVRRNNTFLSLRDVFGKDLIYTLYYWKSSSSGKKTAKTNTNEFLIDVDKGENYCFSVQAVIPSRTVNRKSTDSPVECMG", "notes": "range 3-211; also called CDFE; context-dependent functional entity"}, "B3": {"name": "NV144: CDFE fusion polypeptide: truncated human TF domain, (Gly4Ser)3 spacer, plasminogen kringle 5 peptide Pro-Arg-Lys-Leu-Tyr-Asp (protein)", "chain": "B2 chain"}}, "key": {"Kringle 5 of plasminogen": {"target": "T1, Kringle 5 of plasminogen (Homo sapiens, UniProt P00747)", "T1 sequence (P00747 481-560 limits assumed)": "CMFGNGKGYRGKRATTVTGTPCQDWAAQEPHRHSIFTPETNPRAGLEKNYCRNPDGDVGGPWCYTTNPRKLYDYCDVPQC", "conditions": "Chang et al. 1998; read-out: binding to kringle 5 of plasminogen; cited from earlier work"}, "factors IX and X": {"system": "factors IX and X", "conditions": "Rao et al. 1988; cited from earlier work"}, "NV144": {"target": "NV144 (UniProt P13726)"}, "TF 1-218": {"target": "TF 1-218 (UniProt P13726)"}, "factor X": {"system": "factor X", "assay": "Linked functional assay: factor Xa generation by protein:VIIa complex incubated with factor X", "format": "biochemical", "conditions": "for Relative Proteolytic Activity: factor Xa generation, TF 1-218 = 1.00"}, "[1]": {"target": "T2, blood coagulation factor VIIa (UniProt P08709 61-466)", "T2 sequence (looked up)": "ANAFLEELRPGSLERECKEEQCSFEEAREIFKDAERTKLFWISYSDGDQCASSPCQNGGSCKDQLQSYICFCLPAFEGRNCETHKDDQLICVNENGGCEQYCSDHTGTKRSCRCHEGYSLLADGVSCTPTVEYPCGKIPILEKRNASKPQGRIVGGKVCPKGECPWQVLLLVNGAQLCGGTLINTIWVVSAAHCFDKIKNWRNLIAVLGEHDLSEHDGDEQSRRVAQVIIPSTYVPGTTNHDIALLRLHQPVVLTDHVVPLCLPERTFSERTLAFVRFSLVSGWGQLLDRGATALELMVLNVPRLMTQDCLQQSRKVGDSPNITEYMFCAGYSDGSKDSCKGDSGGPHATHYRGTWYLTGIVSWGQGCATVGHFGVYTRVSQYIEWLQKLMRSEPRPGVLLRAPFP", "assay": "surface plasmon resonance, Biacore 2000"}, "[2]": {"target": "T2, blood coagulation factor VIIa", "assay": "titration of the amidolytic activity of factor VIIa against protein concentration"}, "factor VIIa": {"target": "T3, factor VIIa (Homo sapiens, UniProt P08709)", "T3 sequence (P08709 61-212 limits assumed)": "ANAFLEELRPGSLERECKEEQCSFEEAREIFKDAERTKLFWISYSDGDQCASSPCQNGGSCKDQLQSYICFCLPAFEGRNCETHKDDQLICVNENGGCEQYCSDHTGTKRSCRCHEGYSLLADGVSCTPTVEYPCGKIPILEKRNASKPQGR", "T3 sequence (P08709 213-466 limits assumed)": "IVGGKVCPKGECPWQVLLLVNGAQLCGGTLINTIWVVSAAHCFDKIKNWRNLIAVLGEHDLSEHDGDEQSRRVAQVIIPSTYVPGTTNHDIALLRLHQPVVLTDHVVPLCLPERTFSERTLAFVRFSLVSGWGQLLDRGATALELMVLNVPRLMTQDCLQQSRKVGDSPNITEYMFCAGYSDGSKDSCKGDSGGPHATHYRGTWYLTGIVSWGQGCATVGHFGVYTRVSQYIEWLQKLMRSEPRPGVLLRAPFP", "assay": "Surface plasmon resonance (Biacore 2000) binding to factor VIIa", "conditions": "by surface plasmon resonance and amidolytic titration"}, "[3]": {"system": "C1300 neuroblastoma tumor spheroid", "assay": "Intravital microscopy of tumor vessels in skinfold chamber", "format": "in vivo, A/J mouse", "conditions": "infused over 30 min"}, "[4]": {"system": "MAT B III breast carcinoma tumors", "assay": "Syngeneic MAT B III rat breast carcinoma model", "format": "in vivo, Fisher 344 rats", "conditions": "NV144 alone", "text": "The MAT B III rat breast carcinoma is very malignant and fast-growing and, unlike many animal tumors, metastasizes. In addition, the tumor-bearing host lives sufficiently long to develop metastatic disease from the primary tumor. As such, the MAT-BIII tumor model has similar characteristics to human tumors.\nFisher 344 rats bearing MAT B III breast carcinoma tumors were used for these studies. Experiments were begun when the tumors reached approximately 170-200 mm3 in size (5-9 days; “day 0”). Tumors in saline treated controls grew very rapidly and reach a size of about 35,000 mm^3 at day 7. In the treatment groups, tumor-bearing rats were treated with NV144 or DOXIL (Sequus Pharmaceuticals, Inc.), either alone or in combination. In the clinic, DOXIL generally is administered at about 4 mg/kg.\nAt the highest dose of DOXIL (9 mg/kg), survival initially appeared to be similar in both groups of rats; however, none of the animals survived beyond day 23 due to the high dose of DOXIL."}}, "note": "“Also recorded” adds a separate entry of the source."}
{"molecule": "NCCCCCCC(=O)O", "note": "[7-aminoheptanoic acid]", "values": [{"measurement": "Kd", "setting": "Kringle 5 of plasminogen", "result": 367000, "unit": "nM"}]}
{"molecule": "TF: integral transmembrane protein receptor tissue factor, trigger of the coagulation cascade", "values": [{"measurement": "enhancement of enzymatic activation of substrate factors IX and X on binding of factor VIIa", "setting": "factors IX and X", "result": "≤ 5,000 fold"}]}
{"molecule": "blood coagulation factor X", "values": [{"measurement": "Relative Proteolytic Activity", "setting": "NV144", "result": 0.86}, {"measurement": "Relative Proteolytic Activity", "setting": "TF 1-218", "result": 1}]}
{"molecule": "NCCCCC(=O)O", "note": "[5-aminopentanoic acid]", "values": [{"measurement": "Kd", "setting": "Kringle 5 of plasminogen", "result": 580000, "unit": "nM"}]}
{"molecule": "B1", "values": [{"measurement": "Relative Proteolytic Activity", "setting": "factor X", "result": 1.00}, {"measurement": "Kd", "setting": "[1]", "result": 3.26, "unit": "nM"}, {"measurement": "Kd", "setting": "[2]", "result": 4.73, "unit": "nM"}]}
{"molecule": "B2", "values": [{"measurement": "Kd", "setting": "[1]", "result": 3.22, "unit": "nM"}, {"measurement": "Kd", "setting": "[2]", "result": 4.32, "unit": "nM"}]}
{"molecule": "B3", "values": [{"measurement": "affinity for factor VIIa compared with isolated truncated TF (tTF) domain alone", "setting": "factor VIIa", "result": "comparable"}, {"measurement": "rate of fluid phase factor Xa generation as compared to tTF", "setting": "factor X", "result": "normal rate"}, {"measurement": "Relative Proteolytic Activity", "setting": "factor X", "result": 0.86}, {"measurement": "effects on nearby vessels in skin and nearby angiogenic vessels", "setting": "[3]", "result": "No similar effects"}, {"measurement": "rate of blood flow in the tumor", "setting": "[3]", "result": "general slowing"}, {"measurement": "vascular permeability of tumor vessels", "setting": "[3]; plasma leakage into extravascular space and hemorrhage", "result": "significant and selective changes"}, {"measurement": "anti-tumor activity when administered alone", "setting": "[4]", "result": "little or no effect; also recorded: no significant anti-tumor activity"}]}
